Assay [1] concerns the target T1, CC chemokine receptor 8 (CCR8) (human, UniProt P51685 1-355). In words: radioligand binding.
For assay [2], the target named is T1, CC chemokine receptor 8 (CCR8). As to the kind of experiment: radioligand binding. The source holds these as a separate data set.

Where two headings read alike, the source gives them in different places.

T1 sequence (P51685 whole entry): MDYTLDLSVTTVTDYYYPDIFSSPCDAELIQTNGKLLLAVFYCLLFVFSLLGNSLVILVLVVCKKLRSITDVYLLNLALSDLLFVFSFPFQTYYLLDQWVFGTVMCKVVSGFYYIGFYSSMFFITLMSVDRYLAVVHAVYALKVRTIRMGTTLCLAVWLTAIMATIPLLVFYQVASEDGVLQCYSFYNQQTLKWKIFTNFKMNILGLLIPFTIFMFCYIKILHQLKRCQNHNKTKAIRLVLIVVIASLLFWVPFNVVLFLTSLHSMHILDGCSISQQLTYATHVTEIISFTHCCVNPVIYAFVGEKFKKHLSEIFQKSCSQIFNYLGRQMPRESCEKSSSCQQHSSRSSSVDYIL

B1: I-309 (ligand, human, UniProt P22362 24-96, looked up)
chain: KSMQVPFSRCCFSFAEQEIPLRAILCYRNTSSICSNEGLIFKLKRGKEACALDTVGWVQRHRKMLRHCPSKRK
The IC50 is the concentration that inhibits the measured activity by half. A higher IC50 goes with a need for much substance. The molecule B1 registered an IC50 in assay [1] of 0.52 nM.

B2: viral macrophage inflammatory protein (vMIP)-II encoded by human herpesvirus 8 (HHV8) (ligand, UniProt Q98157 21-94, looked up)
chain: GDTLGASWHRPDKCCLGYQKRPLPQVLLSSWYPTSQLCSKPGVIFLTKRGRQVCADKSKDWVKKLMQQLPVTAR
In assay [1], B2 showed a half-maximal inhibitory concentration (IC50) of 27.8 nM.

B3: MC148 CC chemokine from molluscum contagiosum virus (MCV), processed secreted protein (ligand, molluscum contagiosum virus subtype 1, UniProt Q98314 1-104, looked up)
chain: LARRKCCLNPTNRPIPNPLLQDLSRVDYQAIGHDCGREAFRVTLQDGRQGCVSVGNKSLLDWLRGHKDLCPQIWSGCESL
B3: the 50% inhibitory concentration (IC50) in assay [2] is 0.27 nM; in assay [1], 0.47 nM.

Values taken from publication PMC2195798 (The Journal of Experimental Medicine, 2000).
